The source of these data is article PMC11187071, “The binding mechanism of an anti-multiple myeloma antibody to the human GPRC5D homodimer” (Nature Communications, 2024).

The target of data set [1] is T1, WT GPRC5D expressed on HEK293T cells (Homo sapiens, UniProt Q9NZD1).
T1 construct: human GPRC5D, UniProt Q9NZD1; also called GPRC5D-WT; source: HEK293T, transiently transfected, on cells
Nature of the data set: flow cytometry on cells; HEK293T cells transiently transfected with WT or mutated GPRC5D, incubated with purified IgG150_18 at different concentrations for 60 min, detected with goat anti-human IgG (Fc specific)-FITC at 4 °C; % of total, normalized to expression level. To be noted: one partner purified.

Data set [2] concerns the molecule itself. Kind of data set: cryo-EM structure; GPRC5D and scFv150_18 co-expressed in Hi5 insect cells, complex purified by TALON IMAC and Superdex 200 in LMNG/CHS, 20 mM HEPES pH 7.4, 100 mM NaCl; C2 symmetry, 3.34 Å.

B1: IgG150-18 with a single mutation at Y228 (HCDR2) (antibody, V domains shown)
VH: QVQLVESGGGLVHPGGSLRLSCAASGFTFRSHSMNWVRQAPGKGLEWVSSISSDSTYTAYADSVKGRFTISRDNAKNSLYLQMNSLRAEDTAVYYCARSGGQWKYYDYWGQGTLVTVSS
VL: SSELTQDPAVSVALGQTVRITCQGDSLRSYYASWYQQKPGQAPVLVIYGKNNRPSGIPDRFSGSSSGNTASLTITGAQAEDEADYYCNSRDSSGNPPVVFGGGTKLTVL
notes: as the heavy chain variable domain of m3 (from scFv m2, PDB 8YZK) with a single mutation at Y228 (HCDR2; number as printed for the scFv); human IgG heavy chain constant region; as the light chain of m3; Residue number counts as in the scFv structure, not on the IgG heavy chain; also called Y228 mutant antibody; source: HEK-293F, transfected, purified (protein A, Superdex 200)
Consider B1, for which the binding result in data set [1] is recorded as “binds”.

B2: IgG150-18 (scFv150-18 cloned into human IgG format) (antibody, V domains shown)
VH: QVQLVESGGGLVHPGGSLRLSCAASGFTFRSHSMNWVRQAPGKGLEWVSSISSDSTYTYYADSVKGRFTISRDNAKNSLYLQMNSLRAEDTAVYYCARSGGQWKYYDYWGQGTLVTVSS
VL: SSELTQDPAVSVALGQTVRITCQGDSLRSYYASWYQQKPGQAPVLVIYGKNNRPSGIPDRFSGSSSGNTASLTITGAQAEDEADYYCNSRDSSGNPPVVFGGGTKLTVL
notes: heavy chain variable domain as in the scFv m2 (PDB 8YZK); human IgG heavy chain constant region; light chain variable domain as in the scFv m2 (PDB 8YZK); human light chain constant region; also called antibody150_18; scFv150_18 in its IgG format; source: HEK-293F, transfected, purified (protein A, Superdex 200)
For the molecule B2, the EC50 in data set [1] was ~4.6 nM.

B3: human GPRC5D (residues 1-298) with N-terminal BRIL fusion, cryo-EM construct (receptor, UniProt Q9NZD1 1-298, looked up)
chain: MYKDCIESTGDYFLLCDAEGPWGIILESLAILGIVVTILLLLAFLFLMRKIQDCSQWNVLPTQLLFLLSVLGLFGLAFAFIIELNQQTAPVRYFLFGVLFALCFSCLLAHASNLVKLVRGCVSFSWTTILCIAIGCSLLQIIIATEYVTLIMTRGMMFVNMTPCQLNVDFVVLLVYVLFLMALTFFVSKATFCGPCENWKQHGRLIFITVLFSIIIWVVWISMLLRGNPQFQRQPQWDDPVVCIALVTNAWVFLLLYIVPELCILYRSCRQECPLQGNACPVTAYQHSFQVENQELSR
notes: human GPRC5D, UniProt Q9NZD1, residues 1-298; Order at the N-terminus as printed: haemagglutinin signal peptide, Flag tag, BRIL, then GPRC5D 1-298, HRV 3C site, 10x His; Membranes were treated with iodoacetamide before solubilisation; also called hGPRC5D; GPRC5D homodimer; not shown: BRIL (thermostabilized E. coli apocytochrome b562RIL), N-terminal, kept; 10x His, C-terminal, kept
On to B3, for which, in data set [2], the “stoichiometry N” value turned out to be 2.
